Measured values as given in the DeepSol protein solubility set.

Experiment: soluble on expression in E. coli; label from the status in PepcDB or PDB records

Sequence	soluble on expression in E. coli
GMPIIIDKDLPARKVLQEENIFVMTKERAETQDIRALKIAILNLMPTKQETEAQLLRLIGNTPLQLDVHLLHMESHLSRNVAQEHLTSFYKTFRDIENEKFDGLIITGAPVETLSFEEVDYWEELKRIMEYSKTNVTSTLHICWGAQAGLYHHYGVQKYPLKEKMFGVFEHEVREQHVKLLQGFDELFFAPHSRHTEVRESDIREVKELTLLANSEEAGVHLVIGQEGRQVFALGHSEYSCDTLKQEYERDRDKGLNIDVPKNYFKHDNPNEKPLVRWRSHGNLLFSNWLNYYVYQETPYVL	soluble
MGSDKIHHHHHHMGTKKNFVLDTNVILHDYNCLKNFQENDIYLPIVVLEELDKFKKGNEQINYNAREFVRELDLITDDSLFTHGAPLGEGLGKLFIVTGDSEAPKVHESFPARKPDHQILAVAEYLARKYPKMKNILVTKDVNLRMKARSIGILCEDYITDKVVNVDIFEKSNEVFENIEPDLIDRIYSSREGLDISEFDFKDIIRPNECFILKSDRSSVLARYNPFTHTVCRVNKTKNYGIEPRNAEQSFAFEILNDPDIKLVALTGKAGTGKTLLALAAALGKLTEYKQILLARPIVALSNKDLGFLPGDATEKVAPYMQPLFDNLNVIKRQFASNSTEVKRLEDMQKSEQLVIEALAFIRGRSLSETYCIIDEAQNLTPHEIKTIITRAGEGTKMVFTGDIQQIDQPYLDSQSNGLVYMIDRMKDQNLFAHVNLVKGERSELSELASNLM	not soluble
MSLLNEENNFYNVDLLDLLKDSNEAVLPYKRIRFRRNQKILTEGAETTYFYIIEDGVVSMSKNTCKEDSIISFLGKQDSIGPLTLLGGAKSPANYTSISEVSVYQFERKYVLNKLLSSPDVFWQMNSLMQSMVSPMLEREAYVNLPSSEKVLAGLIACGERFGRIESDGSCLIPYYFTQKILGNYLNLARAYVATNLRKLEEDGVISLSPKPWRVKNFDVHRQKLKDNYKPYI	not soluble
MSLKYSFIAQHKKTWPVGMMCQLMGVTSSGYYSYQKRKSTKTNNEPEHEELLEWVKKISESSKFSYGNRRIRKALNALGYPVGRRKTHRLMREAGIFVRYKKKYKVTTNSNHKQPIFDNVLNRKFQVNEPNRAYVSDMTYIPTHEGWLYLTVVIDLFSRKVVGWNMSSRMKADTVCDALTMAIWQRKPKAGLIVHSDRGSQYASKQYRSLLNQHGLVGSMSKKGDCWDNSVAESFFSRLKDELVHWRNYQTRREAKQDILDYMTMFYNNQRLHSSLDYLSPNQFENRYWGLMKKVAEGHHHHHH	not soluble
MSLTTDVKDELSRLVVKSVSARRAEVTSLLRFAGGLHIVGGRVVVEAELDLGSIARRLRKEIFELYGYTAVVHVLSASGIRKSTRYVLRVANDGEALARQTGLLDMRGRPVRGLPAQVVGGSIDDAEAAWRGAFLAHGSLTEPGRSSALEVSCPGPEAALALVGAARRLGVGAKAREVRGADRVVVRDGEAIGALLTRMGAQDTRLVWEERRLRREVRATANRLANFDDANLRRSARAAVAAAARVERALEILGDTVPEHLASAGKLRVEHRQASLEELGRLADPPMTKDAVAGRIRRLLSMADRKAKVDGIPDTESVVTPDLLEDAEGHHHHHH	soluble
SLQNNQPVEFNHAINYVNKIKNRFQGQPDIYKAFLEILHTYQKEQRNAKEAGGNYTPALTEQEVYAQVARLFKNQEDLLSEFGQFLPDA	soluble
MTKQLVLFCDFDGTITENDNIIAIMKQFAPPEWEALKDDILAERISVQEGVGKMFSLLPSSLKGEIIDFLRRTTRLRAGFREFVAFTKERGIPLYIVSGGIDFFVYPLLEGLIEPERIFCNGSDFSGETIRITWPHACDGECQNGCGCCKPSLLRKLARPDGYHVVIGDSITDLAVAKQADYVMARDFLLQKCQELGLPHAPFATFFDVIDALQRMEVIV	soluble
GPGSMAMMLHTRRTVYSCICVHTHTHTHTCGCPPPTLSQKKKRSRLFMSSSSGDEYDPAEVTVHTTVASPSLSDTVVPSAAPFLRSAAGNASAATVAAAPALASLPKTAASVLPSSSSPTPPNTGNDVDGGYRLHSNIKGRIRCLTLNTAGTTLCAGSEDGQLCMWDFTVPLKSYRVQPTRVLTPFVNRISGLQPIIALTCASDDSYFVACQDGDSPVLVRASGEQLGYCAIGERGLMDVIQCKGHRAPVTCVAAHTHDAAAFFTGSQDGTVRLWNTATFKQRSVYAVKHGSGQLTDTHAVESVASLDSFHNGLGRVFASGGQDGRVQIWDSRVKYRPGGAIATVDMYAAAAPAGPDKVTEDPFMEKHVGGMMELHQKDAGASNASGSYGLAVRLGSAVKIIDLPQLSHSDGTTAPKAVLQERLPGCPTCSTRALCRLGAVVGLQQ	soluble
SATSTTIAKHIGNSNPLIDHHLGADPVALTYNGRVYIYMSSDDYEYNSNGTIKDNSFANLNRVFVISSADMVNWTDHGAIPVAGANGANGGRGIAKWAGASWAPSIAVKKINGKDKFFLYFANSGGGIGVLTADSPIGPWTDPIGKPLVTPSTPGMSGVVWLFDPAVFVDDDGTGYLYAGGGVPGVSNPTQGQWANPKTARVIKLGPDMTSVVGSASTIDAPFMFEDSGLHKYNGTYYYSYCINFGGTHPADKPPGEIGYMTSSSPMGPFTYRGHFLKNPGAFFGGGGNNHHAVFNFKNEWYVVYHAQTVSSALFGAGKGYRSPHINKLVHNADGSIQEVAANYAGVTQISNLNPYNRVEAETFAWNGRILTEKSTAPGGPVNNQHVTSIQNGDWIAVGNADFGAGGARSFKANVASTLGGKIEVRLDSADGKLVGTLNVPSTGGAQTWREIETAVSGATGVHKVFFVFTGTGTGNLFNFDYWQFTQR	soluble
MGSDKIHHHHHHMVTIVPINEEERASIINGLKSSVPATKLITLKKIVDLTVLRPESLQYMEMTDKMAIQRIVSGIERIMEYDIDEVLKREASIALEKLKVTLGSKFVQNLFYCQNCNGVVDIGWENCANCGASLAEMEFAETKPCPNCNKHTSENWNNCAHCGFQLIKEEDKIQKCSGCKREVDPTWMVCPYCGTRLKVSKK	not soluble
EIRVFETAPEGLKILKDSEVVINTTTKEVAKNNQFSVSDASGTYNMVNDVKVG	soluble
MSLTQSSKLIAVIVANIDDYFSTELFKGISSILESRGYIGVLFDANADIEREKTLLRAIGSRGFDGLILQSFSNPQTVQEILHQQMPVVSVDREMDACPWPQVVTDNFEAAKAATTAFRQQGYQHVVVLTSELELSRTRQERYRGILAAAQDVDVLEVSESSYNHSEVHQRLTQLITQNDQKTVAFALKERWLLEFFPNLIISGLIDNQTVTATGFADTDFIRRMEPKLTLITQNPFLMGASSAEIMLRQLAGEKVAPEKMVIPAKLQEGHHHHHH	soluble
MRSANHSELSNALLAISQSLADRSQLTQTLDAVLTAARQMTLAKHGIIYVLDQTGQALIPSTAHHNDKTIVSHPWEALQIDSASENDPFNFAIRNGEVVLINELYKYKGYDCESIYQTEQTLGLKSENLLAWPLIDSESKTIGLLVLLDLNVIDNEAALTEFCRMAASNIRQAVWLEQ	not soluble
MKLILNTPGLYLCKRGECFQIQSENEKREIAATKVDQIMITTHAALTTDAIELALEYNIDIIFLKNTGQPMGRVWHSKLGSISTIRRKQLFLQDSPLGLQLVKEWILEKMDNQIRLLKKLEVNRRDDEKRAIIRDTIEKIEKQKANIMSINNKETVNNVRNMLLGYEGTAGRVYFETLGKLIPEKYAFEARSRNPAKDPFNCMLNYSYGILYSSVEKACIIAGLDPYIGIMHTDNYNKKALVYDMVEMYRGYMDEIVFRLFSTKKVQDDFFDKIEDGYYLNKEGKQLLISEYNKELEVKMNYRGRRIEFANIIQYDCHQIANRILKEDIPC	soluble
MPLVSLIIRCYNEEKHIGRLLSGVMQQQGIDYEIIIVDSGSTDATVSIAQRYPIQLISIDPQNFSFGRSLNLGCQQASGEYLVFASAHVYPVYQDWLKQLIAPLQTNPQIALSYGKQRGNNQTQFSEHQIFAQWFPDQAQIPQTTPFCNNANAAIRRDLWQKYPYNEDLTGLEDLDWAKRLMQAGYQIAYVPDAEIIHVHQETPQRVRNRYRREAIALKQIFPEQTFSLGDFVRLTVSNTLSDYYYAWQSQQLMTQLWAIPQFRLMQFWGTYQGYHQNNSLNQQLRQTFYYPRPINTITPNVPSKDALKINYAQSDTQLVPDPSPPSPHQLEHHHHHH	soluble
HHHSSGLTPRGSQMKKIAFGCDHVGFILKHEIVAHLVERGVEVIDKGTWSSERTDYPHYASQVALAVAGGEVDGGILICGTGVGISIAANKFAGIRAVVCSEPYSAQLSRQHNDTNVLAFGSRVVGLELAKMIVDAWLGAQYEGGRHQQRVEAITAIEQRRN	soluble
GSAAPPAKEIPEVLVDPRSRRRYVRGRFLGKGGFAKCFEISDADTKEVFAGKIVPKSLLLKPHQREKMSMEISIHRSLAHQHVVGFHGFFEDNDFVFVVLELCRRRSLLELHKRRKALTEPEARYYLRQIVLGCQYLHRNRVIHRDLKLGNLFLNEDLEVKIGDFGLATKVEYDGERKKTLCGTPNYIAPEVLSKKGHSFEVDVWSIGCIMYTLLVGKPPFETSCLKETYLRIKKNEYSIPKHINPVAASLIQKMLQTDPTARPTINELLNDEFFTSGYIPARLPITCLTIPPRFSIAPSSLDPSNRKPLTVLNK	soluble
MEKVEHLNLNIQNILEDVDIDTASSSSDDEPEQAVVKQEKLEAGEQIEEQYDTDSDYDDDIVEFAEATGDFTKKLNAARLNTIGPNAARNRLTVDVERHADTSEDRKRKRVKDRADRATVEQVLDPRTRLVLFRLLQRGTLLNIDGCISTGKEANVYHATGTDNDLAIKIYKTSILTFKDRERYVTGEFRYRHGYCKSNPRKMVAVWAEKEMRNLARMHEVGLPVPKPHLLKGHVLVMDFLGKDGWPAPLLKNANLSQEDAEPMYVGLVRDMRRLYRECKLVHADLSEFNMLVHDGKLWIIDVSQSVEQDHPHALEFLRMDCNNVNKFFRELGVPVLSVRRLFEVIVDPLMSSKEMETIIEEERVLVNSEDDSLFMNAFIPHKLEHVLHFERDGKLAKEGVEANNPFQNIVSKIDLKGDGFGEEHDDSDDNDDEENGKKSRKKRAEPTEEEIQEKERKIAMHTRNREETAEERKERKAAVKEEKREQRKEKIPKHLKKRAHRQHMKYQSSPWSTLINCLHTLVP	not soluble
MAHHHHHHMLVFRRNFSRFINNNTPKRGVRKVLHKNVTQYGKYTPNSNIVNQQNDNNKLVRGGGGLLSTFYESFIYGCGFFLSNRLLDQIFGPRTYDSFSNNMDYSNENSGGQAPDNYNSYPSENLNNNDPTINDNDFQQDIGLDDDTFDF	not soluble
MAHHHHHHMALLQRVAQVMQEVAPLSLADHSWDNVGVLLESPAPNKSNAIMLTIDLTPEVMEECLEKNVEVILAYHPPLFRPVKRLTLQDPKQRIILQAASAGMSIYAPHTSLDAAEGGINDWLASLVAGDGAYTASPIQPTSSYAPNAAEATKATGMGRLVKLKEEVEFCSMVGSLKQQLGLATVRVALPDSWEPSHKVSSVALCAGSGTSVFRLLRLPVHVLLSGEMSHHDVLAATAAGQAVILCEHTNTERGFLKAVLQRTLQAKLEGTTVLVSDKDSDPLTAW	soluble
MNSYVKWIFVVLLICSLTAFVEKDKPTGGLSEGDVAPDFKIESASNGQPAFKLGNLKGKYVLLSFWASYDAQSRMQNVSLSNVLRSSRNVEMVSVSFDEYQSIFKETVRKDQIVTPTCFVETEGEDSRLFKKYRLNRGFTNYLLDGNGVIIAKNISAADLSAYVSEIG	not soluble
